Laboratory results from PMC11554844, “BEACH domain proteins function as cargo-sorting adaptors in secretory and endocytic pathways” (The Journal of Cell Biology, 2024).

Columns and labels:
Experiment in all cases: pull-down; GST-CTLA4 (201–215) immobilised on glutathione-sepharose beads, incubated overnight at 4°C with purified protein (1 µg MBP fusion, 1 µg NBEAL2, 0.2 µg LRBA, or purified 3xFlag-EGFP-NBEAL2 fragment); washed six times in 50 mM Tris-HCl pH 7.4, 150 mM NaCl, 1% Triton X-100; detected by blot (anti-NBEAL2, anti-LRBA, anti-Flag, anti-MBP)
Settings in all cases: both partners purified
[1] = target: T1, Purified full-length untagged NBEAL2 (human, UniProt Q6ZNJ1-1 1-2754)
T1 construct: NBEAL2, human; also called 3xFlag-EGFP-SUMOstar-NBEAL2 after SUMOstar protease; source: FreeStyle 293-F, transiently transfected, purified (GFP-Trap agarose, eluted with SUMOstar protease); not shown: 3xFlag, N-terminal, cleaved; EGFP, N-terminal, cleaved; SUMOstar, N-terminal, cleaved

[2] = target: T2, Purified full-length untagged LRBA (human, UniProt P50851-1 1-2863)
T2 construct: LRBA, human; also called 3xFlag-EGFP-SUMOstar-LRBA after SUMOstar protease; source: FreeStyle 293-F, transiently transfected, purified (GFP-Trap agarose, eluted with SUMOstar protease); not shown: 3xFlag, N-terminal, cleaved; EGFP, N-terminal, cleaved; SUMOstar, N-terminal, cleaved

[3] = target: T3, 3xFlag-EGFP-NBEAL2(1792-2754) (human, UniProt Q6ZNJ1-1 1792-2754)
T3 construct: NBEAL2, human, C-terminal fragment with the PH-BEACH-WD40 domains; The legend's upper limit 2794 differs from the plasmid's name; also called C-terminal fragment of NBEAL2; C-terminal (PH-BEACH-WD40 domains) fragment of NBEAL2; source: purified; not shown: 3xFlag, N-terminal, kept; EGFP, N-terminal, kept

Measured: binding result

T1 sequence (Q6ZNJ1 whole entry): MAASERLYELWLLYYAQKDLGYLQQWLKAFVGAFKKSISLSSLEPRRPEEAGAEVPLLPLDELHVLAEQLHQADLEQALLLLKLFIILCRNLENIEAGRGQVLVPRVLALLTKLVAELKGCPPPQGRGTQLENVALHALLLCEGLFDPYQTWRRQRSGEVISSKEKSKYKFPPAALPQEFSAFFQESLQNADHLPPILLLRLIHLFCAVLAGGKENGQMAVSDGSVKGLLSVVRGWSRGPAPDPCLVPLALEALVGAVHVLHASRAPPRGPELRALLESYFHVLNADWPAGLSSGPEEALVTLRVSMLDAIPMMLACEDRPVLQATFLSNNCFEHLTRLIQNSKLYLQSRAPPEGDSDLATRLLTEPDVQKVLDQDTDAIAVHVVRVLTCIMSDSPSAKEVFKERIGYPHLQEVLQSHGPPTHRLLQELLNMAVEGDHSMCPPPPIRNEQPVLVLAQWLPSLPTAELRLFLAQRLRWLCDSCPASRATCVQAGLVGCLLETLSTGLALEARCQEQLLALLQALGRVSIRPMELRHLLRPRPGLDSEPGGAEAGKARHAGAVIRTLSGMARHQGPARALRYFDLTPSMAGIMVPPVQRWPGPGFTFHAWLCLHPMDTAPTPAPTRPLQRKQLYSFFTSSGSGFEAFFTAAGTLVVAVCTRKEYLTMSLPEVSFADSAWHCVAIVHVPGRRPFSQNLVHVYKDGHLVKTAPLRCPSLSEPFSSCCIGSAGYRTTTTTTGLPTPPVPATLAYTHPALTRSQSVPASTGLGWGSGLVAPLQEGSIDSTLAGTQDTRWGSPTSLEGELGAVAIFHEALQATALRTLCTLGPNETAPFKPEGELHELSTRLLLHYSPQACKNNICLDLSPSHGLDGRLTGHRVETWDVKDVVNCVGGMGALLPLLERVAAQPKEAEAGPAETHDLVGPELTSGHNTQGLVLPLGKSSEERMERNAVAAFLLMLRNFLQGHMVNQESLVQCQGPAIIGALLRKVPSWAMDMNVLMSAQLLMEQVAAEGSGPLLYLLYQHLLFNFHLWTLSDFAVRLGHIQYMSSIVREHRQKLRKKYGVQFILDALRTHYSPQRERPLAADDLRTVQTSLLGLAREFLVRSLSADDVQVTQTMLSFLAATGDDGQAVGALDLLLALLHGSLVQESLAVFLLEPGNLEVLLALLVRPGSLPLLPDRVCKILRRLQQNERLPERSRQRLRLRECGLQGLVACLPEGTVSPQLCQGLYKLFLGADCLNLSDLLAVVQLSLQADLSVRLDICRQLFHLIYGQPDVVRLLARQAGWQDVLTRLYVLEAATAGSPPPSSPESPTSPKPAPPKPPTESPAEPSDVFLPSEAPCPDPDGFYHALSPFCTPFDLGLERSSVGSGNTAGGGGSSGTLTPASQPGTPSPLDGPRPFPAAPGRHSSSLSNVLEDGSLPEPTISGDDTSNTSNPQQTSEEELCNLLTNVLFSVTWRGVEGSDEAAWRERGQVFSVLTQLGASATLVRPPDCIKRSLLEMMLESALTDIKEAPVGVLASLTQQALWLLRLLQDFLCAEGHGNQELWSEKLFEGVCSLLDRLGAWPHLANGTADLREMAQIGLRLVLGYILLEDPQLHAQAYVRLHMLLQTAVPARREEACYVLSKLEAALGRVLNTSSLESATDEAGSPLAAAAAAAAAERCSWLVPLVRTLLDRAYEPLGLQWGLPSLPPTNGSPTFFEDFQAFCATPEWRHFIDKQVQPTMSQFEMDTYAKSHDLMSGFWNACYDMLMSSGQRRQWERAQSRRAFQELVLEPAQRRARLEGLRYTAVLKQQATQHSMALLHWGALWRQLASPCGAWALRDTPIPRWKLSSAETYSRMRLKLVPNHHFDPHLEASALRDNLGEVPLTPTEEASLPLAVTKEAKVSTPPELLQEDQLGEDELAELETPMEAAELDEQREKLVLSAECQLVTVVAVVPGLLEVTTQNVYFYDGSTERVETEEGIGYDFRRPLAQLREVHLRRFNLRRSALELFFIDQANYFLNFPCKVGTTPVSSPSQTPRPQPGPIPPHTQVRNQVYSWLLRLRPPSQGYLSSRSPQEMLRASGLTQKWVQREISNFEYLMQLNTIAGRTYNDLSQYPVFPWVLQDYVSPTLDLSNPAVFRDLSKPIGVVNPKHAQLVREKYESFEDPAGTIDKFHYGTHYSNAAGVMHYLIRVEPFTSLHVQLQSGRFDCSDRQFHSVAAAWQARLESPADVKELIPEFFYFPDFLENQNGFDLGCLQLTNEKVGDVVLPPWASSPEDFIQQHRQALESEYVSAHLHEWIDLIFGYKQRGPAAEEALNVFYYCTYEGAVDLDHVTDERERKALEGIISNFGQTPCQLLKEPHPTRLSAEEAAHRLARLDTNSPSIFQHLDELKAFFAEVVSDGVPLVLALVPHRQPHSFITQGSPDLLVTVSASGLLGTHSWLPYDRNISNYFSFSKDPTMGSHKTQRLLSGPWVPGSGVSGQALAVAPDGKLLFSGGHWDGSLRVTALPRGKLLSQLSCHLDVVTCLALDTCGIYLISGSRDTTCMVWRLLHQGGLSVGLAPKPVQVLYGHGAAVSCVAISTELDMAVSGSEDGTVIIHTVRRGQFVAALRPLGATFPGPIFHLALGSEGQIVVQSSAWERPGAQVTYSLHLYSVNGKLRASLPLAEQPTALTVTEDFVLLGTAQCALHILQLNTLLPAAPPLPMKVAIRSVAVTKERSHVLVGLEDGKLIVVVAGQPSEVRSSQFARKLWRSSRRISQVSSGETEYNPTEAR
T3 sequence (Q6ZNJ1 1792-2754): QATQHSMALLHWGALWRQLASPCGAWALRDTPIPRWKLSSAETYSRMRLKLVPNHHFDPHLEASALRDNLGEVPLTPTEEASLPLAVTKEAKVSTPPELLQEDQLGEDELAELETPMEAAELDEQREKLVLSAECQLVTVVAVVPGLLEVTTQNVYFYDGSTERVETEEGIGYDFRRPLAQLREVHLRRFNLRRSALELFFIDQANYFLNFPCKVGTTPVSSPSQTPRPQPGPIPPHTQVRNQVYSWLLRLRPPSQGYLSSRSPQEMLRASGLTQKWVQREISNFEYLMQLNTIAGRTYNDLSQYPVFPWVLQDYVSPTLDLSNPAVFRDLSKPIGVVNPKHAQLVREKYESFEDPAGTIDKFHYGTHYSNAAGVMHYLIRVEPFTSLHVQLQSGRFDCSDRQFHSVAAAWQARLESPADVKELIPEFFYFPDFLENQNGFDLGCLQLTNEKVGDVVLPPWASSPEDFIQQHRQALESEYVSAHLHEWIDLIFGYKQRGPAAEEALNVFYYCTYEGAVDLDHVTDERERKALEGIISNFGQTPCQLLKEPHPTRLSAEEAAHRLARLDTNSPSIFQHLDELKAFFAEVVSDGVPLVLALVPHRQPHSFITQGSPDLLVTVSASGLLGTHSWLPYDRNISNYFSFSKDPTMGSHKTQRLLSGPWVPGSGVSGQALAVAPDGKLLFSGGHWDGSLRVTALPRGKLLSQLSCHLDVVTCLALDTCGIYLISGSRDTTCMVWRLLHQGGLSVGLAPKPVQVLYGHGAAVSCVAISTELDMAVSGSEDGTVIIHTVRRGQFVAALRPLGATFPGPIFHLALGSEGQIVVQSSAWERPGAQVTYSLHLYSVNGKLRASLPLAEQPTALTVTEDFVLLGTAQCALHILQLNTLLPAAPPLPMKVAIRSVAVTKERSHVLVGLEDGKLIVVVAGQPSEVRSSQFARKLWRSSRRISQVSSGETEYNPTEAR

B1: GST-CTLA4 (201–215) (domain or fragment, human, UniProt P16410 201-215, looked up)
chain: YVKMPPTEPECEKQF
notes: source: E. coli BL21(DE3), purified on Glutathione Sepharose 4B beads
binds: all assays above
